Source: patent US20240417457A1

Molecular target: FRα covalently bound to a CM5 sensor chip (UniProt P15328)
Test: SPR (Biacore T200), FRα amine-coupled to a CM5 chip, 180 sec association then dissociation

Chain of UniProt P15328 (P15328 25-234 limits assumed): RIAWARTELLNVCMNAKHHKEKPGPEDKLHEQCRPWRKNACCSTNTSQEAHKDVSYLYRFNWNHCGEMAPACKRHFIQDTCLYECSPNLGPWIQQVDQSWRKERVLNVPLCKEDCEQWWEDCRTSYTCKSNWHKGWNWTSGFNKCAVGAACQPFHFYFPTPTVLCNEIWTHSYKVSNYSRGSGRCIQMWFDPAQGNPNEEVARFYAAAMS

binding at time 300 sec as percent of the plateau: 75%
B1: Antibody I (ScFv, SEQ. ID. NOs: 9-10) (scFv, part only; not given: linker, domain order, His tag, V domains shown, not shown: another chain or arm of the molecule; small tags and cut ends)
VH: QVQLVQSGSELKKPGASVKVSCKASDYIFTNYDITWVRQAPGQGLEWMGEIDPRSGKSYYNEKFKGKSTLTADKSVSTAYLQISSLKAEDTAVYFCATMYYYGSSPPMDYWGQGTTVTVS
VL: DIQMTQSPSSLSASVGDRVTITCRASQDINNFLNWYQQKPGKAPKLLIYYTSRLHSGVPSRFSGSGSGTDYTFTISSLQPEDIATYFCQQSSTIPRTFGQGTKLEIK
